Among the data in publication PMC7422833 are stoichiometry N and percent of the protein eluting values, retold here.

Assay in all cases: SEC; 200 uL of purified protein on a Superdex 200 10/30 column in TBS with 5 mM EDTA, pH 7.4, 0.3 mL/min; elution at 280 nm compared with molecular weight standards (12.4 to 443 kDa) and with refolded reference preparations
On the technique in general: In gel filtration, larger molecules generally elute earlier.

Test [1] concerns the target rfhSP-A refolded using the previous refolding protocol using NTwt (human).
Test [2] concerns the target recombinant fragment of human SP-A (rfhSP-A) expressed and isolated as a soluble protein using NT* (human).
Test [3] addresses rfhSP-D expressed and purified without an expression tag using the standard rfhSP-D purification protocol (human).
The target in test [4] is recombinant fragment of human SP-D (rfhSP-D) expressed and isolated as a soluble protein using NT* (human).

By stoichiometry N is commonly meant a count of units in the complex or per binding partner. “rfhSP-A refolded using the previous refolding protocol using NTwt (domain or fragment)”: the stoichiometry N in test [1] is 3. As for “recombinant fragment of human SP-A (rfhSP-A) expressed and isolated as a soluble protein using NT* (domain or fragment)”, in test [2], the percent of the protein eluting at the volume of the trimer worked out at 24% and the stoichiometry N was 3. In test [3], “rfhSP-D expressed and purified without an expression tag using the standard rfhSP-D purification protocol (domain or fragment)” had a stoichiometry N of 3.

As to “recombinant fragment of human SP-D (rfhSP-D) expressed and isolated as a soluble protein using NT* (domain or fragment)”, in test [4], the percent of the protein eluting at the volume of the trimer turned out to be 88.5% and the stoichiometry N stood at 3.
